According to the supplement of paper PMC7877785:
± gives the uncertainty stated by the source.

Test: self-splicing fitness, log relative to wild type (ln ratio); higher = more splicing; Tetrahymena group I intron in knt gene, E. coli kanamycin selection, DiMSum; sequences stand for … in CUCUCU…GGAGGGAAAAGUUAUCAGGCAUGCACCUGGUAGCUAGUCUUUAAACCAAUAGAUUGCAUCGGUUUAAAAGGCAAGACCGUCAAAUUGCGGGAAAGGGGUCAACAGCCGUUCAGUACCAAGUCUCAGGGGAAACUUUGAGAUGGCCUUGCAAAGGGUAUGGUAAUAAGCUGACGGACAUGGUCCUAACCACGCAGCCAAGUCCUAAGUCAACAGAUCUUCUGUUGAUAUGGAUGCAGUUCACAGACUAAAUGUCGGUCGGGGAAGAUGUAUUCUUCUCAUAAGAUAUAGUCGGACCUCUCCUUAAUGGGAGCUAGCGGAUGAAGUGAUGCAACACUGGAGCCGCUGGGAACUAAUUUGUAUGCGAAAGUAUAUUGAUUAGUUUUGGAGUACUCGUGGUCG
Method in brief: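 Colonies from six replicate transformations of E. coli BL21(DE3) were pooled and amplicon-sequenced on an Illumina HiSeq 2500. The library placed an intron with all eight P1ex-region nucleotides randomised inside the knt kanamycin-resistance gene on pET-22b(+), and cells grew overnight at 37°C or 30°C on LB agar with or without 25 μg/mL kanamycin (plus 100 μg/mL carbenicillin, 50 μM IPTG, 0.2% rhamnose). Fitness is the DiMSum error-weighted combination of wild-type-normalised replicate fold changes, kanamycin versus none.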

Row | Sequence | self-splicing fitness (ln) (30 °C) | self-splicing fitness (ln) (37 °C)
1 | AGCUAGCAAUAUUACGUGUG | -2.2 ± 0.06 | -1.7 ± 0.079
2 | AGGAAGCAAUAUUACGACUC | -0.644 ± 0.3 | -0.886 ± 0.45
3 | AGGAAGCAAUAUUACGAGGU | -3.85 ± 0.34 | -2.97 ± 0.24
4 | AGGAAGCAAUAUUACGAUUG | -3.96 ± 0.36 | -3.3 ± 0.28
5 | AGGAAGCAAUAUUACGCACC | -1.52 ± 0.16 | 0.0459 ± 0.16
6 | AGGAAGCAAUAUUACGCCCA | -0.363 ± 0.42 | 1.47 ± 0.39
7 | AGGAAGCAAUAUUACGCGUA | -1.87 ± 0.15 | -0.669 ± 0.11
8 | AGGAAGCAAUAUUACGCGUU | -2.55 ± 0.17 | -1.01 ± 0.17
9 | AGGAAGCAAUAUUACGGAUA | – | -2.01 ± 0.21
10 | AGGAAGCAAUAUUACGGCGU | -0.156 ± 0.1 | -0.118 ± 0.11
11 | AGGAAGCAAUAUUACGGGAA | -2.67 ± 0.25 | -2.08 ± 0.26
12 | AGGAAGCAAUAUUACGGGGA | -2.97 ± 0.2 | -2.38 ± 0.16
13 | AGGAAGCAAUAUUACGGUAC | -3.99 ± 0.36 | -3.03 ± 0.25
14 | AGGAAGCAAUAUUACGGUCC | -1.54 ± 0.23 | -1.05 ± 0.4
15 | AGGAAGCAAUAUUACGGUCU | -0.784 ± 0.079 | 0.265 ± 0.11
16 | AGGAAGCAAUAUUACGGUGC | -3.36 ± 0.21 | -2.51 ± 0.2
17 | AGGAAGCAAUAUUACGGUUA | -0.766 ± 0.1 | -0.654 ± 0.1
18 | AGGAAGCAAUAUUACGUAAC | -3.65 ± 0.3 | -2.18 ± 0.42
19 | AGGAAGCAAUAUUACGUAAG | -1.39 ± 0.11 | -2.01 ± 0.17
20 | AGGAAGCAAUAUUACGUCUC | -2.91 ± 0.18 | -1.48 ± 0.21
21 | AGGAAGCAAUAUUACGUGCG | -1.01 ± 0.1 | -1.04 ± 0.13
22 | AGGAAGCAAUAUUACGUUAG | -2.95 ± 0.21 | -3.24 ± 0.29
23 | AGGAAGCAAUAUUACGUUGU | -3.98 ± 0.18 | -2.82 ± 0.15
24 | AGGCAGCAAUAUUACGACAC | -1.75 ± 0.18 | -0.221 ± 0.18
25 | AGGCAGCAAUAUUACGAGAA | -3.3 ± 0.41 | -2.09 ± 0.36

Row | Sequence | self-splicing fitness (ln) (30 °C) | self-splicing fitness (ln) (37 °C)
26 | AGGCAGCAAUAUUACGAUGU | -2.41 ± 0.094 | -0.487 ± 0.1
27 | AGGCAGCAAUAUUACGCAAC | -0.42 ± 0.21 | -1.41 ± 0.34
28 | AGGCAGCAAUAUUACGCACC | -0.268 ± 0.1 | -0.0601 ± 0.15
29 | AGGCAGCAAUAUUACGCACG | -0.754 ± 0.069 | -0.342 ± 0.11
30 | AGGCAGCAAUAUUACGCAGU | -3.36 ± 0.2 | -1.55 ± 0.19
31 | AGGCAGCAAUAUUACGCCAU | -2.27 ± 0.25 | -1.39 ± 0.3
32 | AGGCAGCAAUAUUACGCUAG | -3.53 ± 0.25 | -3.04 ± 0.27
33 | AGGCAGCAAUAUUACGCUCG | -1.75 ± 0.091 | -0.442 ± 0.12
34 | AGGCAGCAAUAUUACGGAUG | -2.3 ± 0.1 | -2.58 ± 0.21
35 | AGGCAGCAAUAUUACGGGCG | -0.287 ± 0.097 | -0.172 ± 0.11
36 | AGGCAGCAAUAUUACGGGCU | -0.928 ± 0.071 | -1.51 ± 0.11
37 | AGGCAGCAAUAUUACGGGUG | -3.64 ± 0.15 | -2.29 ± 0.12
38 | AGGCAGCAAUAUUACGGUUG | -3.28 ± 0.18 | -1.46 ± 0.17
39 | AGGCAGCAAUAUUACGGUUU | -0.696 ± 0.043 | -0.371 ± 0.062
40 | AGGCAGCAAUAUUACGUACG | -1.22 ± 0.074 | 0.303 ± 0.1
41 | AGGCAGCAAUAUUACGUUGG | -3.79 ± 0.2 | -1.45 ± 0.11
42 | AGGCAGCAAUAUUACGUUUA | -1.33 ± 0.072 | -0.496 ± 0.08
43 | AGGGAGCAAUAUUACGAAUG | -3.27 ± 0.3 | -2.38 ± 0.39
44 | AGGGAGCAAUAUUACGACCG | -1.92 ± 0.35 | -0.586 ± 0.33
45 | AGGGAGCAAUAUUACGACGU | -2.14 ± 0.23 | -1.63 ± 0.19
46 | AGGGAGCAAUAUUACGAUAU | – | -1.88 ± 0.47
47 | AGGGAGCAAUAUUACGAUCA | – | -1.5 ± 0.4
48 | AGGGAGCAAUAUUACGCAGA | – | -3.27 ± 0.43
49 | AGGGAGCAAUAUUACGCGAG | -3.35 ± 0.19 | -2.47 ± 0.19
50 | AGGGAGCAAUAUUACGCGUA | -3.21 ± 0.31 | -3.16 ± 0.23

Row | Sequence | self-splicing fitness (ln) (30 °C) | self-splicing fitness (ln) (37 °C)
51 | AGGGAGCAAUAUUACGCUUA | -3.44 ± 0.24 | -1.62 ± 0.21
52 | AGGGAGCAAUAUUACGGAAA | -2.4 ± 0.34 | -2.34 ± 0.42
53 | AGGGAGCAAUAUUACGGACU | -1.03 ± 0.16 | 0.483 ± 0.22
54 | AGGGAGCAAUAUUACGGGUG | -4.12 ± 0.2 | -2.54 ± 0.29
55 | AGGGAGCAAUAUUACGGUGU | -4.33 ± 0.22 | -2.37 ± 0.18
56 | AGGGAGCAAUAUUACGUAAC | -2.23 ± 0.28 | -2.99 ± 0.29
57 | AGGGAGCAAUAUUACGUCUA | -2.54 ± 0.21 | -2.26 ± 0.21
58 | AGGGAGCAAUAUUACGUGAC | -2.06 ± 0.3 | -1.15 ± 0.39
59 | AGGUAGCAAUAUUACGACAA | -0.614 ± 0.018 | -0.295 ± 0.035
60 | AGGUAGCAAUAUUACGAGGC | -3.696 ± 0.036 | -2.87 ± 0.047
61 | AGGUAGCAAUAUUACGAGUU | -2.033 ± 0.015 | -0.955 ± 0.033
62 | AGGUAGCAAUAUUACGAUGU | -0.919 ± 0.013 | -0.474 ± 0.033
63 | AGGUAGCAAUAUUACGAUUA | -0.677 ± 0.016 | -0.383 ± 0.033
64 | AGGUAGCAAUAUUACGCAUG | -2.022 ± 0.017 | -1.22 ± 0.034
65 | AGGUAGCAAUAUUACGCAUU | -1.862 ± 0.015 | -0.988 ± 0.034
66 | AGGUAGCAAUAUUACGCCCG | -0.077 ± 0.022 | -0.122 ± 0.04
67 | AGGUAGCAAUAUUACGCCGU | -1.24 ± 0.019 | -0.852 ± 0.035
68 | AGGUAGCAAUAUUACGCCUA | -0.599 ± 0.019 | -0.197 ± 0.035
69 | AGGUAGCAAUAUUACGCGGU | -3.312 ± 0.024 | -2.14 ± 0.037
70 | AGGUAGCAAUAUUACGGAUG | -3.698 ± 0.028 | -2.39 ± 0.037
71 | AGGUAGCAAUAUUACGUAGC | -2.916 ± 0.021 | -1.94 ± 0.036
72 | AGGUAGCAAUAUUACGUGCC | -1.99 ± 0.022 | -1.22 ± 0.037
73 | AGGUAGCAAUAUUACGUGCU | -0.841 ± 0.014 | -0.391 ± 0.033
74 | AGGUAGCAAUAUUACGUGGA | -3.365 ± 0.027 | -2.61 ± 0.037
75 | AGGUAGCAAUAUUACGUUCA | -0.556 ± 0.014 | -0.256 ± 0.033

Row | Sequence | self-splicing fitness (ln) (30 °C) | self-splicing fitness (ln) (37 °C)
76 | AGGUAGCAAUAUUACGUUGC | -3.874 ± 0.031 | -3.06 ± 0.047
77 | AGUAAGCAAUAUUACGAAAA | -2.29 ± 0.38 | -1.89 ± 0.33
78 | AGUAAGCAAUAUUACGAACA | -0.711 ± 0.13 | -0.282 ± 0.14
79 | AGUAAGCAAUAUUACGAUAA | -2.23 ± 0.32 | -1.4 ± 0.19
80 | AGUAAGCAAUAUUACGAUAC | -3.12 ± 0.28 | -2.48 ± 0.38
81 | AGUAAGCAAUAUUACGAUCC | -0.71 ± 0.097 | 0.236 ± 0.15
82 | AGUAAGCAAUAUUACGCCUC | – | -1.7 ± 0.38
83 | AGUAAGCAAUAUUACGCGCC | -0.457 ± 0.22 | 0.671 ± 0.29
84 | AGUAAGCAAUAUUACGGAGA | -3.47 ± 0.32 | -2.44 ± 0.42
85 | AGUAAGCAAUAUUACGGCCC | -0.317 ± 0.14 | -0.0183 ± 0.22
86 | AGUAAGCAAUAUUACGGCUC | -2.15 ± 0.2 | -1.79 ± 0.27
87 | AGUAAGCAAUAUUACGGGUC | -3.31 ± 0.42 | -2.92 ± 0.31
88 | AGUAAGCAAUAUUACGGGUG | -3.13 ± 0.18 | -0.695 ± 0.11
89 | AGUAAGCAAUAUUACGGUGA | -2.73 ± 0.17 | -1.21 ± 0.14
90 | AGUAAGCAAUAUUACGUAAG | -1.35 ± 0.13 | -1.96 ± 0.23
91 | AGUAAGCAAUAUUACGUCCG | -2.03 ± 0.17 | -0.809 ± 0.21
92 | AGUAAGCAAUAUUACGUCGC | – | -1.65 ± 0.31
93 | AGUAAGCAAUAUUACGUGCC | -0.0863 ± 0.11 | -0.612 ± 0.16
94 | AGUAAGCAAUAUUACGUGUG | -4.26 ± 0.18 | -2.32 ± 0.12
95 | AGUAAGCAAUAUUACGUUCA | -1.29 ± 0.095 | -0.266 ± 0.12
96 | AGUAAGCAAUAUUACGUUCU | -0.729 ± 0.085 | -1.21 ± 0.11
97 | AGUCAGCAAUAUUACGAUCC | 0.284 ± 0.16 | 0.198 ± 0.23
